This experiment deals with mouse-derived mAb 735 (mo735) (mouse). Briefly: SPR. For orientation: In SPR one partner is held on a chip, and binding of the other changes the refractive index at the surface.

pKd: −log10 of the molar value.

As a reminder, the pKd is the negative decadic logarithm of the Kd, by convention in mol/L. Low readings indicate a large Kd, high ones a small Kd. “chicken brain-derived polysialylated neural cell adhesion molecule (NCAM) (from UniProt P13590 20-711) (natural protein)” had a pKd of 7.99.
